From the supplement of paper PMC9170038

Tested on: MS2 coat protein
Experiment: apparent KD of MS2 coat protein; higher = weaker reporter binding
Details: Eterna round: R107
How it was run: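 Binding of SNAP-549-labelled MS2 coat protein was measured on designed RNA switches transcribed on-chip from Illumina sequencing clusters. The protein rose in twofold steps from 0.7 or 1.5 nM to 3 µM, with 0.8–1.5 h per step early on and 10–20 min per step later, in 100 mM Tris-HCl pH 7.5, 80 mM KCl, 4 mM MgCl2, without or with constant ligand. Each design's apparent KD is the median of fits to its normalised cluster binding curves.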

[1] = input ligand: theophylline 20 uM
[2] = input ligand: theophylline 2 mM
[3] = input ligand: tryptophan 2.4 mM

Sequence	apparent KD of MS2 coat protein (input ligand: arginine 13.2 mM) [nM]	apparent KD of MS2 coat protein (input ligand: none) [nM]	apparent KD of MS2 coat protein [1] [nM]	apparent KD of MS2 coat protein [2] [nM]	apparent KD of MS2 coat protein [3] [nM]
AAUUUUCACGGAAGGAGCGUCACGUAAUUCAUACAUGAGGAUCACCCAUGUUAGUGGUAGAGACAGGUAGGUCGCCGUUAUUUGA [JR_AAArginiB_Sub026]	14.3	16.8	35.3	20.3	21.4
AGAAUACAUGUUUUAAUACGGUUUACUGAUACCAGUGUAUCUAUUCACCCUUGGCAGCAGAGACAUGAGGAUCACCCAUGUAUUA [JR_Nu_ExcTheophyA_Sub022]	25	–	41.7	–	46.1
GAACAUGAGGAUCACCCAUGUUAAACAGAUACCAGUGAUAUAAUACACCCUUGGCAGCUGAAGCUGAAUAAUAAUUCCCUCAAGC [#21 SameState-TheophyllineA]	13.4	–	17	–	10.5
AUAACGAGUGGUGGAAUACAUGGGUGAUAACGAGGACCGGUACGGCCGCCACUCGAUAACAUGAGGAUCACCCAUGUAAUAAUAA [|T'-M'-Trp-Ms2|_Design18]	57.3	–	160	139	–
GGCACAUAGUCGGCCGCCACUAGGCUGUAGUGGGAGGACAUGAGGAUCACCCAUGUAUUUGGUACUAGGACCGGGACUAUGUGCC [Lion]	62.3	191	259	274	258
UUAAUUAUAUAUUAUAUAAUAUAUACAGAAGGAGCGUGAUAAAACACAGGUAGGUCGCUGAAGGGAACAUGAGGAUCACCCAUGU [AstrosSSArgA#1]	26.9	25.6	38.5	48.6	30
AUAAAUAAUAAAUAAAAUAAAAUGGGUGAACGAGGACCGGUACGGCCGCCACUCGGACAUGAGGAUCACCCAUGUCCAUGUGAAA [#21 Exclusion Tryptophan A]	15.6	–	20.3	22.7	–
UGGUACUAGGCGGCCGCCACUGGGUGAUACAUGAGGAUCACCCAUGUUUAAUGCCGAGAGGCAACCAGGACCGGGCCUAGUACAU	139	327	366	473	19.5
GGGCGCUAUCCCGCGAGGGAUAGCGUUCAACGAGGACCGGUACGGCCGCCACUCGAACGAGUGGGUACAUGAGGAUCACCCAUGU [Haa]	19.9	28.5	46.4	37.1	35.4
AUAGUUAUCAGAAGGAGCGUCAUUAACAUGAGGAUCACCCAUGUAACAUUGAAUUCGAUGAGACAGGUAGGUCGCUGAAUAUUAA [SS-ArgB28]	32.3	39.6	48	41.7	36
GGCUUCAACUCGGCCGCCACUGGUGAUCCUCAUGUACAUGAGGAUCACCCAUGUACAUGAGACUACAGGACCGGGAGAUCAGCAA [Tryptophan B]	10.5	–	28.8	22.5	–
UAAUAAAUAAAUCCAAGGUGAAGGUCAGAUACCAGCCAGAUAACUGGCCCUUGGCAGCUGAAUAAUCAUGAGGAUCACCCAUGAA [TheoAS 25 #OpenEnded #MS2Late #AlternativeMS2]	17.2	22.8	24.7	63.9	19.5
UUUUUCGCGGGCGAUACCAGCUUGAUCGUACUGGCCUGGUACAUGAGGAUCACCCAUGUAAGCCCUUGGCAGCGCGCGCGAGAAG [#1 Exclusion - Theophylline B Attempt #2 (HarryS)]	10.8	11.5	17.7	30.4	12
GGCCUGUGGUGCGAUACCAGCUUGAGUGUACUGGCCAGGUACAUGAGGAUCACCCAUGUAAGCCCUUGGCAGCGCGUCAGAGGCC [#1 Exclusion - Theophylline B Attempt #19 (HarryS)]	13.5	8.82	16.9	30.3	12.1
UGACAUUGCUCAGAUACCAGACAUGAGGAUCACCCAUGUACCAAGGUAACCGAAAGGCAUGUCCCUUGGCAGCUGAGCAAUGUCU [TheoBX 2 #MS2Left #Theo2 #StaticStem]	13	–	18.9	–	11.9
GCAUCCUAGUCGGCCGCCACUGGAUGUACCCAGUGCUGGUACAAACAUGAGGAUCACCCAUGUACCAGGACCGGGACUAGGAUGC [(Trp1)-(MT2)''-(T1)'-(MT2)'-(Ms2)-(Trp2)_Design3]	23.6	12.7	16.4	12.3	9.93
GUUGUAUACUCGGCCGCCACUGAGAGAGUCAUGUAAACAUGAGGAUCACCCAUGUAAUAUAUAUACAGGACCGGGAGUAUGGUAA [4.F]	12.1	–	16.2	15.4	–
AGCCGCGUUCUUUCUUUCUUUCUAGCGGCACGAGGACCGGUACGGCCGCCACUCGAAGACAUGAGGAUCACCCAUGUAGUGGGUA [The Second Ring]	47.4	123	142	109	206
CCAAGCAUAAUAGAUACCAGUCGUAUACCUCCAACAUGAGGAUCACCCAUGUGCUCAGUUGACCCUUGGCAGCUAUGCCUAUAGA [theeternabot_sameState_MS2_Theo_B_1]	37.4	–	53.3	–	38.2
AACAUGAGGAUCACCCAUGUACAUUUCGAUCGAGGACCGGUACGGCCGCCACUCGAAAACAUGAGGAUCACCCAUGUUCAACAGG [Tryp A SS t4]	65	–	336	390	–
